In US5574136:

Molecular target: human G-CSF receptor, class 2 (plasmid pHQ2), form lacking the transmembrane domain (human)
Assay: saturation binding of murine 125I-G-CSF to COS cells transfected with pHQ2, Scatchard plot

Kd: 0.44 nM
binding sites /cell: 6000 /cell
Substance: mouse recombinant G-CSF (granulocyte colony-stimulating factor) (from UniProt P09920) (ligand)
